Test results taken from patent US20230129812A1 (ACCELERON PHARMA, published 2023).
Residue numbers refer to the chain shown, from its start. Numbers in names are those of the source. Values belong to the binder of their own block, whether it stands above or below them.

How the values were obtained:
activin A [1] = target: T1, activin A (UniProt P08476 311-426); test: SPR (Biacore); ligand coupled, receptor flowed over (as reported in WO2006/012627)
T1 construct: also called ActA
T1 sequence (looked up): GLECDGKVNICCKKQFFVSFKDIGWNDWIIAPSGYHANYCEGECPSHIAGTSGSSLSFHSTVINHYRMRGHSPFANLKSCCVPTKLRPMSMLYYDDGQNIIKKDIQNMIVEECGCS
Text: (§1) Other variants have been generated and tested, as reported in WO2006/012627 (incorporated herein by reference in its entirety). See, e.g., pp. 59-60, using ligands coupled to the device and flowing receptor over the coupled ligands. […] Table 11 showing data with respect to these variants is reproduced below: […]

activin A [2] = target: T1, activin A; test: SPR (Biacore); receptor-Fc captured by anti-hFc antibody, ligand injected
Description: (§2) Binding of certain ActRIIB-Fc proteins and ActRIIB variant Fc fusion polypeptides to ligands was tested in a Biacore™ assay.
(§3) The ActRIIB-Fc variants or wild-type protein were captured onto the system using an anti-hFc antibody. Ligands were injected and flowed over the captured receptor proteins.

GDF8 = target: T2, GDF8 (UniProt O14793 267-375); test: as above
T2 construct: also called myostatin
T2 sequence (looked up): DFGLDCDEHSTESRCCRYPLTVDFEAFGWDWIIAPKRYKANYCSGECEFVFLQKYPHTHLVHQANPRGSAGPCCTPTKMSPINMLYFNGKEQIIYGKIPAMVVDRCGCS
Description: as §2, §3

GDF11 [3] = target: T3, GDF11 (UniProt O95390 299-407); test: SPR (Biacore); ligand coupled, receptor flowed over (as reported in WO2006/012627)
T3 construct: also called BMP11
T3 sequence (looked up): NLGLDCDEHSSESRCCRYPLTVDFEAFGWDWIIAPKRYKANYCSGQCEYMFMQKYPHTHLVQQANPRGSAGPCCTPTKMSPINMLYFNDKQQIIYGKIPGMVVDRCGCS
Text: as §1

GDF11 [4] = target: T3, GDF11; test: SPR (Biacore); ligand coupled, receptor flowed over (as reported in WO2006/012627); -- means <1/5 WT binding
Text: as §1

GDF11 [5] = target: T3, GDF11; test: SPR (Biacore); receptor-Fc captured by anti-hFc antibody, ligand injected
Description: as §2, §3

Kd (activin A [1]): ~26 nM
B1: Soluble ActRIIB-Fc +15tail (Fc fusion, UniProt Q13705 19-134, looked up)
chain: SGRGEAETRECIYYNANWELERTNQSGLERCEGEQDKRLHCYASWANSSGTIELVKKGCWLDDFNCYDRQECVATEENPQVYFCCCEGNFCNERFTHLPEAGGPEVTYEPPPTAPT
notes: not shown: linker and Fc

Kd (activin A [2]): 0.0841 nM
koff (activin A [2]): 0.000628 s⁻¹
kon (activin A [2]): 7.46e+06 M⁻¹ s⁻¹
Kd (GDF8): 2.15 nM
koff (GDF8): 0.000209 s⁻¹
B2: ActRIIB(R64K 20-129)-hFc (Fc fusion)
chain: GRGEAETRECIYYNANWELERTNQSGLERCEGEQDKRLHCYASWKNSSGTIELVKKGCWLDDFNCYDRQECVATEENPQVYFCCCEGNFCNERFTHLPEAGGPEVTYEPPGGGTHTCPPCPAPELLGGPSVFLFPPKPKDTLMISRTPEVTCVVVDVSHEDPEVKFNWYVDGVEVHNAKTKPREEQYNSTYRVVSVLTVLHQDWLNGKEYKCKVSNKALPVPIEKTISKAKGQPREPQVYTLPPSREEMTKNQVSLTCLVKGFYPSDIAVEWESNGQPENNYKTTPPVLDSDGSFFLYSKLTVDKSRWQQGNVFSCSVMHEALHNHYTQKSLSLSPGK

Kd (activin A [1]): 180 nM
Kd (GDF11 [3]): 260 nM
B3: Soluble ActRIIB-Fc WT (64A) (Fc fusion, UniProt Q13705 19-119, looked up, not shown: a dimerising Fc or GST)
chain: SGRGEAETRECIYYNANWELERTNQSGLERCEGEQDKRLHCYASWANSSGTIELVKKGCWLDDFNCYDRQECVATEENPQVYFCCCEGNFCNERFTHLPEA
notes: Whole entry named

binding result (activin A [1]): no binding
binding result (GDF11 [3]): no binding
B4: Soluble ActRIIB-Fc D80R (Table 11) (Fc fusion, UniProt Q13705 19-119, looked up, not shown: a dimerising Fc or GST)
chain: B3 chain with D62R

binding result (activin A [1]): no binding
binding result (GDF11 [3]): no binding
B5: Soluble ActRIIB-Fc D80N (Table 11) (Fc fusion, UniProt Q13705 19-119, looked up, not shown: a dimerising Fc or GST)
chain: B3 chain with D62N

binding result (activin A [1]): no binding
binding result (GDF11 [3]): no binding
B6: Soluble ActRIIB-Fc D80M (Table 11) (Fc fusion, UniProt Q13705 19-119, looked up, not shown: a dimerising Fc or GST)
chain: B3 chain with D62M

binding result (activin A [1]): no binding
binding result (GDF11 [3]): no binding
B7: Soluble ActRIIB-Fc E37A (Table 11) (Fc fusion, UniProt Q13705 19-119, looked up, not shown: a dimerising Fc or GST)
chain: B3 chain with E19A

binding relative to WT (GDF11 [4]): < 0.2 fold
binding result (activin A [1]): no binding
B8: Soluble ActRIIB-Fc K74F (Table 11) (Fc fusion, UniProt Q13705 19-119, looked up, not shown: a dimerising Fc or GST)
chain: B3 chain with K56F

binding result (activin A [1]): no binding
binding result (GDF11 [3]): no binding
B9: Soluble ActRIIB-Fc D80K (Table 11) (Fc fusion, UniProt Q13705 19-119, looked up, not shown: a dimerising Fc or GST)
chain: B3 chain with D62K

binding relative to WT (GDF11 [4]): < 0.2 fold
binding result (activin A [1]): no binding
B10: Soluble ActRIIB-Fc D80I (Table 11) (Fc fusion, UniProt Q13705 19-119, looked up, not shown: a dimerising Fc or GST)
chain: B3 chain with D62I

Kd (activin A [1]): 4.35 nM
Kd (GDF11 [3]): 5.3 nM
B11: Soluble ActRIIB-Fc K74A (Table 11) (Fc fusion, UniProt Q13705 19-119, looked up, not shown: a dimerising Fc or GST)
chain: B3 chain with K56A

binding result (activin A [1]): no binding
binding result (GDF11 [3]): no binding
B12: Soluble ActRIIB-Fc D80G (Table 11) (Fc fusion, UniProt Q13705 19-119, looked up, not shown: a dimerising Fc or GST)
chain: B3 chain with D62G

binding relative to WT (GDF11 [4]): < 0.2 fold
binding result (activin A [1]): no binding
B13: Soluble ActRIIB-Fc K74Y (Table 11) (Fc fusion, UniProt Q13705 19-119, looked up, not shown: a dimerising Fc or GST)
chain: B3 chain with K56Y

binding result (GDF11 [3]): no binding
B14: Soluble ActRIIB-Fc K55A (Table 11) (Fc fusion, UniProt Q13705 19-119, looked up, not shown: a dimerising Fc or GST)
chain: B3 chain with K37A

Kd (GDF11 [3]): 86 nM
B15: Soluble ActRIIB-Fc WT (64R) (Fc fusion, UniProt Q13705 19-119, looked up, not shown: a dimerising Fc or GST)
chain: B3 chain with A46R
notes: Whole entry named

binding result (activin A [1]): no binding
binding result (GDF11 [3]): no binding
B16: Soluble ActRIIB-Fc W78A (Table 11) (Fc fusion, UniProt Q13705 19-119, looked up, not shown: a dimerising Fc or GST)
chain: B3 chain with W60A

binding result (activin A [1]): no binding
binding result (GDF11 [3]): no binding
B17: Soluble ActRIIB-Fc R56A (Table 11) (Fc fusion, UniProt Q13705 19-119, looked up, not shown: a dimerising Fc or GST)
chain: B3 chain with R38A

binding result (activin A [1]): no binding
binding result (GDF11 [3]): no binding
B18: Soluble ActRIIB-Fc D80A (Table 11) (Fc fusion, UniProt Q13705 19-119, looked up, not shown: a dimerising Fc or GST)
chain: B3 chain with D62A

binding result (activin A [1]): no binding
binding result (GDF11 [3]): no binding
B19: Soluble ActRIIB-Fc D80F (Table 11) (Fc fusion, UniProt Q13705 19-119, looked up, not shown: a dimerising Fc or GST)
chain: B3 chain with D62F

binding relative to WT (GDF11 [4]): < 0.2 fold
binding result (activin A [1]): no binding
B20: Soluble ActRIIB-Fc K74I (Table 11) (Fc fusion, UniProt Q13705 19-119, looked up, not shown: a dimerising Fc or GST)
chain: B3 chain with K56I

Kd (activin A [2]): 0.0268 nM
koff (activin A [2]): 0.000159 s⁻¹
kon (activin A [2]): 5.94e+06 M⁻¹ s⁻¹
Kd (GDF8): 0.0935 nM
koff (GDF8): 3.45e-05 s⁻¹
Kd (GDF11 [5]): 0.0842 nM
koff (GDF11 [5]): 0.000113 s⁻¹
kon (GDF11 [5]): 1.34e+06 M⁻¹ s⁻¹
B21: ActRIIB(20-134)-hFc (Fc fusion)
chain: GRGEAETRECIYYNANWELERTNQSGLERCEGEQDKRLHCYASWRNSSGTIELVKKGCWLDDFNCYDRQECVATEENPQVYFCCCEGNFCNERFTHLPEAGGPEVTYEPPPTAPTGGGTHTCPPCPAPELLGGPSVFLFPPKPKDTLMISRTPEVTCVVVDVSHEDPEVKFNWYVDGVEVHNAKTKPREEQYNSTYRVVSVLTVLHQDWLNGKEYKCKVSNKALPVPIEKTISKAKGQPREPQVYTLPPSREEMTKNQVSLTCLVKGFYPSDIAVEWESNGQPENNYKTTPPVLDSDGSFFLYSKLTVDKSRWQQGNVFSCSVMHEALHNHYTQKSLSLSPGK
notes: also called ActRIIB-hFc

Kd (GDF8): 0.0718 nM
koff (GDF8): 2.03e-05 s⁻¹
B22: ActRIIB(K74A 20-134)-hFc (Fc fusion)
chain: B21 chain with K55A

Kd (activin A [2]): 0.104 nM
koff (activin A [2]): 0.000346 s⁻¹
kon (activin A [2]): 3.34e+06 M⁻¹ s⁻¹
Kd (GDF11 [5]): 0.0519 nM
koff (GDF11 [5]): 6.35e-05 s⁻¹
B23: ActRIIB(A24N 20-134)-hFc (Fc fusion)
chain: B21 chain with A5N

Kd (GDF8): 2.15 nM
koff (GDF8): 0.00083 s⁻¹
Kd (GDF11 [5]): 0.655 nM
koff (GDF11 [5]): 0.000439 s⁻¹
B24: ActRIIB(L79D 20-134)-hFc (Fc fusion)
chain: B21 chain with L60D

Kd (activin A [2]): 0.0831 nM
koff (activin A [2]): 0.000417 s⁻¹
kon (activin A [2]): 5.02e+06 M⁻¹ s⁻¹
Kd (GDF8): 1.67 nM
koff (GDF8): 0.00018 s⁻¹
B25: ActRIIB(P129S, P130R 20-134)-hFc (Fc fusion)
chain: B21 chain with P110S, P111R

Kd (activin A [2]): 0.0476 nM
koff (activin A [2]): 0.000325 s⁻¹
kon (activin A [2]): 6.82e+06 M⁻¹ s⁻¹
Kd (GDF8): 0.21 nM
koff (GDF8): 4.71e-05 s⁻¹
Kd (GDF11 [5]): 0.0356 nM
koff (GDF11 [5]): 2.41e-05 s⁻¹
B26: ActRIIB(R64K 20-134)-hFc (Fc fusion)
chain: B21 chain with R45K

Kd (GDF8): 2.41 nM
koff (GDF8): 0.0009 s⁻¹
Kd (GDF11 [5]): 0.716 nM
koff (GDF11 [5]): 0.000274 s⁻¹
B27: ActRIIB(L79E 20-134)-hFc (Fc fusion)
chain: B21 chain with L60E
